Literature values as cited in patent US8399407B2 (Case Western Reserve University, priority 2009, dated 2013).

Conditions: pH 7.4 and 37° C.

**Q.** With Asp^B28-insulin as the substance, how does the “Susceptibility to fibrillation compared with human insulin” value read?
**A.** The value was “more susceptible to fibrillation”.
